Tests used:
[1] = target: human mature interleukin-1β (IL-1β, amino acids 117-269) (human); assay: thermal shift assay (differential scanning fluorometry); PBS, SYPRO orange; 5 μM emHofQ with 5-200 μM IL-8, or 5 μM IL-1β with 2.5-50 μM emHofQ; heated 20-99°C
[2] = target: recombinant mature interleukin-8 (IL-8) (human); assay: time-resolved fluorometric immunoassay (TRFIA); 60 pmol IL-8 or IL-1β coated on wells; emHofQ wild type and mutants 5 nM-2 μM, 4°C overnight; Eu-N1 anti-6xHis antibody; apparent Kd
[3] = target: N-His-emHofQ (Aggregatibacter actinomycetemcomitans); assay: SPR; Biacore X; N-His-emHofQ coupled to Ni-NTA chip (115-199 RU); IL-8 injected at 1-15 000 nM, 30 μl/min; 10 mM HEPES, 150 mM NaCl, 0.005% P-20, pH 7.4; one-site binding model; apparent
[4] = target: recombinant emHofQ (without a His tail) (Aggregatibacter actinomycetemcomitans); assay: thermal shift assay (differential scanning fluorometry); PBS, SYPRO orange; 5 μM emHofQ with 5-200 μM IL-8, or 5 μM IL-1β with 2.5-50 μM emHofQ; heated 20-99°C
[5] = target: human mature interleukin-1β (IL-1β, amino acids 117-269) (human); assay: time-resolved fluorometric immunoassay (TRFIA); 60 pmol IL-8 or IL-1β coated on wells; emHofQ wild type and mutants 5 nM-2 μM, 4°C overnight; Eu-N1 anti-6xHis antibody; apparent Kd
[6] = target: human mature interleukin-1β (IL-1β, amino acids 117-269) (human); assay: ELISA; cytokines (6 pmol per well) coated on Maxisorp plates; 490 nM emHofQ with C-terminal 8-His tail in PBS, 4°C overnight; detection with His-Probe-HRP; values compared with BSA control
[7] = target: recombinant mature interleukin-8 (IL-8) (human); assay: as above
[8] = target: human mature interleukin-1β (IL-1β, amino acids 117-269) (human); assay: time-resolved fluorometric immunoassay (TRFIA); 6 pmol IL-8 or IL-1β coated on wells; C-His-emHofQ 10-740 nM in Delfia Assay Buffer, RT 1 h; Eu-N1 anti-6xHis antibody; one-to-one fit
[9] = target: recombinant mature interleukin-8 (IL-8) (human); assay: as above

Chain of human mature interleukin-1β (IL-1β, amino acids 117-269) (human) (P01584 117-269): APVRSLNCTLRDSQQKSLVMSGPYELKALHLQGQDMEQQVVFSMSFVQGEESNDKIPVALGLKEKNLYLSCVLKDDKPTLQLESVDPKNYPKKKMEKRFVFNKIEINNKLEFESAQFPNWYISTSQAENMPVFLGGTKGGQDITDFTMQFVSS

**Q.** For “recombinant emHofQ (without a His tail) (domain or fragment)”, which Tm of IL-1β with 50 μM emHofQ (60.2°C without) [1] is on record?
**A.** The Tm of IL-1β with 50 μM emHofQ (60.2°C without) was 55.8 °C.

**Q.** “emHofQ_L2 (D165A, R166A) (domain or fragment)” was tested. Which Kd [2] did it give?
**A.** Its Kd is 110 nM.

**Q.** With “recombinant mature interleukin-8 (IL-8) (natural protein)” as the substance, how does the Kd [3] read?
**A.** Its Kd is 2400 nM.

**Q.** What about the Tm of emHofQ with 200 μM IL-8 (45.3°C without) [4] of the same substance?
**A.** Its Tm of emHofQ with 200 μM IL-8 (45.3°C without) is 51.7 °C.

**Q.** “emHofQ_L1 (H136A, F137A, K139A) (domain or fragment)” was tested. Which Kd [2] did it give?
**A.** The Kd was 190 nM.

**Q.** With “emHofQ_L1L2 (H136A, F137A, K139A, D165A, R166A) (domain or fragment)” as the substance, how does the Kd [2] read?
**A.** The Kd was 200 nM.

**Q.** What does the source list for “C-His emHofQ (extramembranous domain of the secretin HofQ, C-terminal His tag) (domain or fragment)”?
**A.** Kd [5]: 90 nM; Kd [2]: 44 nM; fold binding over the control (BSA) [6]: 1.3 fold; fold binding over the control (BSA) [7]: 4 fold; Kd [8]: 140 nM; Kd [9]: 43 nM
